B1: Zinc finger homeobox protein 3, residues 2643 to 2698; numbered along this chain, Q15911 (parent)
chain: RLRTTITPEQLEILYQKYLLDSNPTRKMLDHIAHEVGLKKRVVQVWFQNTRARERK

Variants of: B1
Experiment: abundance fitness (aPCA) (normalised: wild type 0, dead -1); higher = more abundant; growth selection in yeast, the domain comes from the species named
Details: Homo sapiens

Abundance fitness of substitutions, site by site:
T50: P -0.6; K -0.091; Y -0.048; A 0.056; D -0.731; E 0.342; N -0.572; F -0.322; C -0.078; G -0.549; M 0.092; R -0.037; H -0.11; L -0.177; I -0.247; Q 0.243; W -0.156; S -0.202
F47: R -0.757; W -0.106; Q -0.887; N -0.835; P -1.04; M -0.522; L -0.639; H -1.09; Y -0.388; E -0.736; V -0.902; K -0.812; S -0.946; T -0.997; I -1.01
Q48: G -0.164; P -0.615; R -0.204; L -0.268; A 0.122; K 0.096; T 0.028; E 0.404; H -0.108; D 0.505; Y -0.089; I -0.687; W -0.217; F -0.802; N -0.21; V -0.147; C -0.189
R55: A 0.239; N 0.462; K 0.496; E 0.255; I 0.142; Y 0.113; S 0.347; M 0.483; H 0.001; Q 0.216; C 0.263; V 0.282; W 0.017; T 0.479; P 0.105; F 0.004
A52: N 0.062; G -0.037; Q 0.21; E 0.291; L -0.317; I -0.639; K 0.035; M -0.138; C -0.209; W -0.335; D 0.244; F -0.428; P -0.598; S -0.021; T -0.419; Y -0.221; V -0.349
R51: Q 0.229; Y 0.073; M 0.098; W -0.135; S 0.024; H 0.164; I -0.286; L 0.056; C -0.044; E -0.163; P -0.812; D -0.474; A 0.13; K 0.112; T -0.305; V -0.155
K56: L -0.527; W -0.314; A 0.034; R -0.35; H -0.17; P -0.225; T 0.01; G 0.001; N -0.07; E 0.466; S 0.262; Y -0.54; M -0.204; V -0.073; Q 0.032
R53: E 0.288; D 0.31; F 0.239; K -0.045; H -0.258; L -0.006; T 0.029; G 0.126; C 0.052; M -0.132; V 0.013; N 0.172; Y -0.327; P -0.266; S 0.133; A 0.092
E54: I -0.197; C -0.306; V -0.39; M -0.177; L -0.2; S -0.497; A -0.478; Y -0.438; D 0.014; R -0.701; N -0.531; T -0.361; G -0.305; F -0.167; P -0.38; H -0.229; W -0.512; Q -0.495
N49: M -0.331; C -0.496; S -0.029; H -0.412; T 0.04; Q -0.168; I -0.267; F -0.531; G -0.234; A -0.2; R -0.267; W -0.68; L -0.334; D 0.172; K 0.011; P -0.778; E 0.406; V -0.229

From the Human Domainome abundance scans (Beltran et al. 2025)
